This passage reports Kd results from paper doi:10.1101/2024.02.29.582761.

Common to all, as to test: BLI
(In general: BLI is a label-free optical method that tracks binding on a fibre tip over time.)

The target in assay [1] is His-SUMO-XB-GGS peptide (E. coli).
For assay [2], the target named is His-SUMO-GroTAC1 (E. coli).
For another assay, the target named is His-SUMO-GGS-SBP peptide.

As for “ClpX (from UniProt P0A6H1 1-424) (enzyme)”, the equilibrium dissociation constant (Kd) worked out at 65 nM in assay [1] and 70 nM in assay [2].

As for “GroEL (from UniProt P0A6F5 1-548) (natural protein)”, the equilibrium dissociation constant (Kd) came to 94 nM with His-SUMO-GGS-SBP peptide and 154 nM in assay [2].

What is called Kd is the equilibrium constant for the complex coming apart. The low end stands for tighter binding, the high end for weaker binding.
